Results: publication doi:10.1101/2023.06.20.545120, “Magnetogenetic cell activation using endogenous ferritin” (bioRxiv, 2024)
Numbering of substitutions follows the chain as printed.

B1: anti-ferritin nanobody clone 2 (VHH)
VHH: QVQLQESGGGLVQPGGSLRLSCAASGLAFSNYGMGWFRQAPGKEREFVSAVSWISDTTNYADSVKGRFTISRDNARNTVYLQMNSLKVEDTAVYYCAAGLGAPRVVAGSYQHWGQGTQVTVSS
notes: The text calls the preparation partially purified; also called Nb-Ft clone 2; Nb-Ft-2; source: crude periplasmic extract of the phage display clone (pMECS); E. coli WK6, purified (periplasmic extract, cobalt IMAC)
B2: anti-ferritin nanobody clone 1 (VHH)
VHH: QVQLQESGGGLVQAGGSLRLSCTASGLAFSSYAMGWFRQAPGKEREFVATIGWTGGTTNYADSVKGRFTISRDNARNTVYLQMNSLKVEDTAVYYCAAGLGAPTVVAGSYQHWGQGTQVTVSS
notes: One of the 17 nanobodies of CDR3 groups 6 and 26; also called Nb-Ft clone 1; Nb-Ft-1; source: crude periplasmic extract of the phage display clone (pMECS)
B3: anti-ferritin nanobody clone 3 (VHH)
VHH: B2 VHH with V2G, L11A, T23A, A33G, T50S, G52S, F68L, T104R
notes: One of the 17 nanobodies of CDR3 groups 6 and 26; also called Nb-Ft clone 3; Nb-Ft-3; source: crude periplasmic extract of the phage display clone (pMECS)
B4: anti-ferritin nanobody clone 4 (VHH)
VHH: QVQLQESGGGLVQPGGSLRLSCAASGLSFANSWMYWVRQAPGKGLEWVAQISPSSLLINYPDSVSGRFTVSRDNAKNTLFLQMDSLKPEDTAVYYCSTEMDGTSRGQGTQVTVSS
notes: One of the 17 nanobodies of CDR3 groups 6 and 26; also called Nb-Ft clone 4; Nb-Ft-4; source: crude periplasmic extract of the phage display clone (pMECS)
B5: anti-ferritin nanobody clone 5 (VHH)
VHH: B2 VHH with T23A, A33G, T50S, G52S, T54S, F68L, T104R
notes: One of the 17 nanobodies of CDR3 groups 6 and 26; also called Nb-Ft clone 5; Nb-Ft-5; source: crude periplasmic extract of the phage display clone (pMECS)
B6: anti-ferritin nanobody clone 6 (VHH)
VHH: B2 VHH with T23A, A33G, T50A, T69I, T104M, A107V
notes: One of the 17 nanobodies of CDR3 groups 6 and 26; also called Nb-Ft clone 6; Nb-Ft-6; source: crude periplasmic extract of the phage display clone (pMECS)
B7: anti-ferritin nanobody clone 7 (VHH)
VHH: B2 VHH with T23A, T50A, G52M, T54S, A75V, T91A, G108D, Y110F
notes: One of the 17 nanobodies of CDR3 groups 6 and 26; also called Nb-Ft clone 7; Nb-Ft-7; source: crude periplasmic extract of the phage display clone (pMECS)
B8: anti-ferritin nanobody clone 10 (VHH)
VHH: B2 VHH with T23A, A33G, A49V, T50A, G52P, T54S, G108D
notes: The text calls the preparation partially purified; also called Nb-Ft clone 10; Nb-Ft-10; source: crude periplasmic extract of the phage display clone (pMECS); E. coli WK6, purified (periplasmic extract, cobalt IMAC)
B9: anti-ferritin nanobody clone 11 (VHH)
VHH: B4 VHH with A23V, S25T, N31K, L56V, N59Q, P88S
notes: One of the 17 nanobodies of CDR3 groups 6 and 26; also called Nb-Ft clone 11; Nb-Ft-11; source: crude periplasmic extract of the phage display clone (pMECS)
B10: anti-ferritin nanobody clone 12 (VHH)
VHH: B2 VHH with T23A, A33G, K43E, T50A, G52S, T54S, S63F
notes: One of the 17 nanobodies of CDR3 groups 6 and 26; also called Nb-Ft clone 12; Nb-Ft-12; source: crude periplasmic extract of the phage display clone (pMECS)
B11: anti-ferritin nanobody clone 13 (VHH)
VHH: B4 VHH with A23V, D62N, P88S, E99G
notes: One of the 17 nanobodies of CDR3 groups 6 and 26; also called Nb-Ft clone 13; Nb-Ft-13; source: crude periplasmic extract of the phage display clone (pMECS)
B12: anti-ferritin nanobody clone 14 (VHH)
VHH: B2 VHH with A14P, T23A, A33G, A49V, T50A, G52P, T54S, G108D
notes: The text calls the preparation partially purified; also called Nb-Ft clone 14; Nb-Ft-14; source: crude periplasmic extract of the phage display clone (pMECS); E. coli WK6, purified (periplasmic extract, cobalt IMAC)
B13: anti-ferritin nanobody clone 15 (VHH)
VHH: B4 VHH with N31K, L56V, N59Q, T91A, V93Q, S97A, E99D, D101S, S104Y
notes: One of the 17 nanobodies of CDR3 groups 6 and 26; also called Nb-Ft clone 15; Nb-Ft-15; source: crude periplasmic extract of the phage display clone (pMECS)
B14: anti-ferritin nanobody clone 16 (VHH)
VHH: B4 VHH with L56I, N59Q
notes: One of the 17 nanobodies of CDR3 groups 6 and 26; also called Nb-Ft clone 16; Nb-Ft-16; source: crude periplasmic extract of the phage display clone (pMECS)
B15: anti-ferritin nanobody clone 17 (VHH)
VHH: QVQLQESGGGAVQAGGSLRLSCAASGLAFSSYGMGWFRQAPGKEREFVAAISWGDGTTNYADSVKGRLTISRDNARNTVYLQMNSLKVGDTAVYYCAAGLGAPRAVAGSFQHWGQGTQVTVSS
notes: The text calls the preparation partially purified; also called Nb-Ft clone 17; Nb-Ft-17; source: crude periplasmic extract of the phage display clone (pMECS); E. coli WK6, purified (periplasmic extract, cobalt IMAC)
B16: anti-ferritin nanobody clone 8 (VHH)
VHH: QVQLQESGGGLVQPGGSLRLSCAASGFSFGDTWMYWVRQAPGKDIEWVAQISPSSVLINYPDSVSGRFTVGRDNAKNTLWLQMDSLKSEDTAVYYCATKMDGASRGQGTQVTVSS
notes: One of the 17 nanobodies of CDR3 groups 6 and 26; also called Nb-Ft clone 8; Nb-Ft-8; source: crude periplasmic extract of the phage display clone (pMECS)
B17: anti-ferritin nanobody clone 9 (VHH)
VHH: B2 VHH with T23A, A33G, T50A, G52R, T54S, A75V, V79A, G108D
notes: The text calls the preparation partially purified; also called Nb-Ft clone 9; Nb-Ft-9; source: crude periplasmic extract of the phage display clone (pMECS); E. coli WK6, purified (periplasmic extract, cobalt IMAC)
B18: anti-ferritin nanobody clone 9 fused to HA-tagged mCherry (VHH)
VHH: B2 VHH with T23A, A33G, T50A, G52R, T54S, A75V, V79A, G108D
notes: the VHH as in m11; In the functional row this id stands for the same VHH fused to the N-terminus of TRPV1; also called Nb-Ft-9; Nb-Ft-HA-mCherry (clone 9)
B19: anti-ferritin nanobody clone 10 fused to HA-tagged mCherry (VHH)
VHH: B2 VHH with T23A, A33G, A49V, T50A, G52P, T54S, G108D
notes: the VHH as in m12; also called Nb-Ft-10; Nb-Ft-HA-mCherry (clone 10)
B20: anti-ferritin nanobody clone 14 fused to HA-tagged mCherry (VHH)
VHH: B2 VHH with A14P, T23A, A33G, A49V, T50A, G52P, T54S, G108D
notes: the VHH as in m16; In the functional row this id stands for the same VHH fused to the N-terminus of TRPV1; also called Nb-Ft-14; Nb-Ft-HA-mCherry (clone 14)
B21: anti-ferritin nanobody clone 2 fused to HA-tagged mCherry (VHH)
VHH: B1 VHH
notes: the VHH as in m4; In the functional rows this id stands for the same VHH fused to the N-terminus of TRPV1 (Nb-Ft-2-TRPV1^Ca2+); also called Nb-Ft-2; Nb-Ft-HA-mCherry (clone 2)
B22: anti-ferritin nanobody clone 17 fused to HA-tagged mCherry (VHH)
VHH: B15 VHH
notes: the VHH as in m19; also called Nb-Ft-17; Nb-Ft-HA-mCherry (clone 17)

biological target: T1, human spleen ferritin (Homo sapiens, UniProt P02794;P02792); experiment: ITC; 10 uM human spleen ferritin in the cell, 75 uM NbFt2 in the syringe, 25 °C; MicroCal Auto-iTC200; conditions: both partners purified
T1 construct: ferritin heavy chain, human, as part of ferritin from spleen; ferritin light chain, human, as part of ferritin from spleen; Tissue ferritin is a shell of heavy and light chains; also called human ferritin; source: bought: Lee Biosolutions (human spleen ferritin)
T1 sequence (P02794 whole entry, chain 1 of 2): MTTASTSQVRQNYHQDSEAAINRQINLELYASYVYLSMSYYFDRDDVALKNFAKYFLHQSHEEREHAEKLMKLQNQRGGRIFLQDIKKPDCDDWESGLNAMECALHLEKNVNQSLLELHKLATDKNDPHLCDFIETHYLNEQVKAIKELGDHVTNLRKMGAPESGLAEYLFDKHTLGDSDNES
T1 sequence (P02792 whole entry, chain 2 of 2): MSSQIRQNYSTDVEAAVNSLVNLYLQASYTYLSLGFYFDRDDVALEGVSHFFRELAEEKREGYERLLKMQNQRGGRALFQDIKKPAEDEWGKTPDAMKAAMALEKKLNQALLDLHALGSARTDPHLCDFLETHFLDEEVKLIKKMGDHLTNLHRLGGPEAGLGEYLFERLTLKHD

**Q.** B1 was tested. Which Kd did it give?
**A.** 540 ± 200 nM

biological target: T1, human spleen ferritin; experiment: ELISA; first-round screen: crude periplasmic extracts of the clones on coated human spleen ferritin or mouse liver ferritin; absorbance ratio greater than 2.5 selected; conditions: one partner purified

**Q.** Does B2 bind?
**A.** binds

**Q.** Does B3 bind?
**A.** binds

**Q.** Does B4 bind?
**A.** binds

**Q.** Does B5 bind?
**A.** binds

**Q.** Does B6 bind?
**A.** binds

**Q.** Does B7 bind?
**A.** binds

biological target: T2, mouse liver ferritin (Mus musculus, UniProt P09528;P29391); experiment: as above; conditions: one partner purified
T2 construct: ferritin heavy chain, mouse, as part of ferritin from liver; ferritin light chain, mouse, as part of ferritin from liver; Tissue ferritin is a shell of heavy and light chains; also called mouse ferritin; mouse ferritin purified from mouse liver; source: bought: Gentaur (purified from mouse liver)
T2 sequence (P09528 whole entry, chain 1 of 2): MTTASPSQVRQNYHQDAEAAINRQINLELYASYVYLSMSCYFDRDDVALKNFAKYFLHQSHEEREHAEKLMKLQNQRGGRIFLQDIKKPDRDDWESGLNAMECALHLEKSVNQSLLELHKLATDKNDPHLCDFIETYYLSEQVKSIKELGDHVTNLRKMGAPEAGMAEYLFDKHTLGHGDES
T2 sequence (P29391 whole entry, chain 2 of 2): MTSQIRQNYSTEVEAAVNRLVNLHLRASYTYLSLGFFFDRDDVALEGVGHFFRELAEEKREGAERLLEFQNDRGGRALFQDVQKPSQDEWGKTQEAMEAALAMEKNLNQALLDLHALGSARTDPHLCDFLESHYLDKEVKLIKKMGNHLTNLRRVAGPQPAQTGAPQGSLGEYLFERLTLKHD

**Q.** Does B8 bind?
**A.** binds

**Q.** Does B9 bind?
**A.** binds

**Q.** Does B10 bind?
**A.** binds

**Q.** Does B11 bind?
**A.** binds

**Q.** Does B12 bind?
**A.** binds

**Q.** Does B13 bind?
**A.** binds

**Q.** Does B14 bind?
**A.** binds

**Q.** Does B15 bind?
**A.** binds

**Q.** Does B16 bind?
**A.** binds

**Q.** Does B17 bind?
**A.** binds

biological target: T3, GFP-tagged mouse ferritin (Mus musculus (ferritin moiety), UniProt P09528, chimera); experiment: co-IP; HEK-293T co-transfected with nanobody-HA-mCherry and GFP-mFerritin; lysis buffer 50 mM Tris pH 7.5, 300 mM NaCl, 1% NP-40, 0.1% SDS; anti-HA agarose overnight at 4 °C; eluate on SDS-PAGE, Coomassie; conditions: partners not purified
T3 construct: green fluorescent protein, the N-terminal GFP moiety of GFP-mFerritin; the rest of the chimeric ferritin and its linkers; ferritin heavy chain, mouse; found by mass spectrometry as the mouse ferritin of the construct; Runs at about 71 kDa; also called GFP-mFerritin; GFP-ferritin

**Q.** Does B18 bind?
**A.** binds

**Q.** Does B19 bind?
**A.** binds

**Q.** Does B20 bind?
**A.** binds

biological target: T3, GFP-tagged mouse ferritin; experiment: affinity purification with mass spectrometry; the anti-HA immunoprecipitates of nanobody-HA-mCherry from HEK-293T with GFP-mFerritin; LC-MS/MS, abundance from peptides unique to mouse or human ferritin heavy chain; enrichment against cells with GFP-mFerritin alone; conditions: partners not purified

**Q.** Which “fold enrichment in the immunoprecipitate over cells with GFP-mFerritin alone” value (“fold enrichment in the immunoprecipitate” for short) does the source give for B21 here?
**A.** 14.5 fold

**Q.** With B22 as the binder, how does the “fold enrichment in the immunoprecipitate” value read?
**A.** 6 fold

biological target: T4, endogenous human ferritin of HEK-293T cells (Homo sapiens (HEK-293T, endogenous), UniProt P02794;P02792); experiment: as above; conditions: partners not purified
T4 construct: ferritin heavy chain, human; the chain whose unique peptides were quantified; ferritin light chain, human; Only the heavy chain was measured; also called human ferritin heavy chain; FTH1_human
T4 sequence (P02794 whole entry, chain 1 of 2): as the sequence (P02794 whole entry, chain 1 of 2) above
T4 sequence (P02792 whole entry, chain 2 of 2): as the sequence (P02792 whole entry, chain 2 of 2) above

**Q.** B18 was tested. Which “fold enrichment in the immunoprecipitate” value did it give?
**A.** 4.6 fold

**Q.** With B19 as the binder, how does the “fold enrichment in the immunoprecipitate” value read?
**A.** 7 fold

**Q.** Which “fold enrichment in the immunoprecipitate” value does the source give for B20 here?
**A.** 5.1 fold

**Q.** How did the “fold enrichment in the immunoprecipitate” value turn out when B21 was run?
**A.** 58.1 fold

**Q.** With B22 as the binder, how does the “fold enrichment in the immunoprecipitate” value read?
**A.** 20.9 fold
